Laboratory results reported in article PMC4951027.
pKd: −log10 of the molar value.

Tests used:
[1] = molecular target: Fn N-terminal domain fragment (Fn-NTD) (human); experiment: SPR; conditions: domain or fragment
[2] = molecular target: ecto-domain of integrin α5β1-Fc fusion protein; experiment: SPR

Sequence of Fn N-terminal domain fragment (Fn-NTD) (human) (P02751 32-290): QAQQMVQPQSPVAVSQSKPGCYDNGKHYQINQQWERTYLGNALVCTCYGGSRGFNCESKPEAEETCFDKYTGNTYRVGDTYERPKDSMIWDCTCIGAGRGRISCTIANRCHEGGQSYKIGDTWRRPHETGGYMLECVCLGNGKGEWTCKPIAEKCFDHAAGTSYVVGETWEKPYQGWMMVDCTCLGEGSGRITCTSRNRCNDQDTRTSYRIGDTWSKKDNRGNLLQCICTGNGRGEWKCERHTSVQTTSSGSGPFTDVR

GST-FnBPA-3
pKd [1]: 5.00

Fn + BBK32 (BBK32-bound Fn) (from UniProt O50835 21-205) (complex)
pKd [2]: 6.77 | ka1 (first step, bivalent analyte model) [2]: 75000 M⁻¹ s⁻¹ | ka2 (second step, bivalent analyte model) [2]: 8e-06 RU^-1s^-1 | kd1 (first step, bivalent analyte model) [2]: 0.012 s⁻¹ | kd2 (second step, bivalent analyte model) [2]: 0.001 s⁻¹
